Laboratory results taken from the RNAGym collection of RNA variant scans (doi:10.1021/acssynbio.7b00057).

B1: Pistol ribozyme (parent)
chain: GGGUCGUUGUUCCAUAAUCGCGUGGAUAUGGCACGCAAGUUUCUACCGGGCACCGUAAAUGUCCGACUGGAGCCGUUCGGGCGGCUAUAAACAGACCUCAGGCCCGAAGCGUGGCGGCACCUGCCGCCGGUGGUAAAAAAGAUCGGAAGAGCACACGUCU

Variants of: B1
Test: aptazyme ON/OFF ratio, guanine; higher = stronger switching; co-transcriptional cleavage with and without guanine

Variant	aptazyme ON/OFF ratio
GGGUCGCUAUGAGAUAAUCGCGUGGAUAUGGCACGCAAGUUUCUACCGGGCACCGUAAAUGUCCGACUGGAGCCGUUCGGGCGGCUAUAAACAGACCUCAGGCCCGAAGCGUGGCGGCACCUGCCGCCGGUGGUAAAAAAGAUCGGAAGAGCACACGUCU [U7C G9A U11G C12A C13G]	1.25
GGGUCGCUAUGAAAUAAUCGCGUGGAUAUGGCACGCAAGUUUCUACCGGGCACCGUAAAUGUCCGACUGGAGCCGUUCGGGCGGCUAUAAACAGACCUCAGGCCCGAAGCGUGGCGGCACCUGCCGCCGGUGGUAAAAAAGAUCGGAAGAGCACACGUCU [U7C G9A U11G C12A C13A]	1.22
GGGUCGCUAUGAUAUAAUCGCGUGGAUAUGGCACGCAAGUUUCUACCGGGCACCGUAAAUGUCCGACUGGAGCCGUUCGGGCGGCUAUAAACAGACCUCAGGCCCGAAGCGUGGCGGCACCUGCCGCCGGUGGUAAAAAAGAUCGGAAGAGCACACGUCU [U7C G9A U11G C12A C13U]	1.14
GGGUCGCUAUCGGAUAAUCGCGUGGAUAUGGCACGCAAGUUUCUACCGGGCACCGUAAAUGUCCGACUGGAGCCGUUCGGGCGGCUAUAAACAGACCUCAGGCCCGAAGCGUGGCGGCACCUGCCGCCGGUGGUAAAAAAGAUCGGAAGAGCACACGUCU [U7C G9A U11C C12G C13G]	1.17
GGGUCGCUAUCGUAUAAUCGCGUGGAUAUGGCACGCAAGUUUCUACCGGGCACCGUAAAUGUCCGACUGGAGCCGUUCGGGCGGCUAUAAACAGACCUCAGGCCCGAAGCGUGGCGGCACCUGCCGCCGGUGGUAAAAAAGAUCGGAAGAGCACACGUCU [U7C G9A U11C C12G C13U]	1.18
GGGUCGCUAUCGAAUAAUCGCGUGGAUAUGGCACGCAAGUUUCUACCGGGCACCGUAAAUGUCCGACUGGAGCCGUUCGGGCGGCUAUAAACAGACCUCAGGCCCGAAGCGUGGCGGCACCUGCCGCCGGUGGUAAAAAAGAUCGGAAGAGCACACGUCU [U7C G9A U11C C12G C13A]	1.29
GGGUCGCUAUAUUAUAAUCGCGUGGAUAUGGCACGCAAGUUUCUACCGGGCACCGUAAAUGUCCGACUGGAGCCGUUCGGGCGGCUAUAAACAGACCUCAGGCCCGAAGCGUGGCGGCACCUGCCGCCGGUGGUAAAAAAGAUCGGAAGAGCACACGUCU [U7C G9A U11A C12U C13U]	1.3
GGGUCGCUAUACUAUAAUCGCGUGGAUAUGGCACGCAAGUUUCUACCGGGCACCGUAAAUGUCCGACUGGAGCCGUUCGGGCGGCUAUAAACAGACCUCAGGCCCGAAGCGUGGCGGCACCUGCCGCCGGUGGUAAAAAAGAUCGGAAGAGCACACGUCU [U7C G9A U11A C13U]	1.13
GGGUCGCUAUACGAUAAUCGCGUGGAUAUGGCACGCAAGUUUCUACCGGGCACCGUAAAUGUCCGACUGGAGCCGUUCGGGCGGCUAUAAACAGACCUCAGGCCCGAAGCGUGGCGGCACCUGCCGCCGGUGGUAAAAAAGAUCGGAAGAGCACACGUCU [U7C G9A U11A C13G]	1.09
GGGUCGCUAUACAAUAAUCGCGUGGAUAUGGCACGCAAGUUUCUACCGGGCACCGUAAAUGUCCGACUGGAGCCGUUCGGGCGGCUAUAAACAGACCUCAGGCCCGAAGCGUGGCGGCACCUGCCGCCGGUGGUAAAAAAGAUCGGAAGAGCACACGUCU [U7C G9A U11A C13A]	1.21
GGGUCGCUAUGACAUAAUCGCGUGGAUAUGGCACGCAAGUUUCUACCGGGCACCGUAAAUGUCCGACUGGAGCCGUUCGGGCGGCUAUAAACAGACCUCAGGCCCGAAGCGUGGCGGCACCUGCCGCCGGUGGUAAAAAAGAUCGGAAGAGCACACGUCU [U7C G9A U11G C12A]	1.08
GGGUCGCUAUGUCAUAAUCGCGUGGAUAUGGCACGCAAGUUUCUACCGGGCACCGUAAAUGUCCGACUGGAGCCGUUCGGGCGGCUAUAAACAGACCUCAGGCCCGAAGCGUGGCGGCACCUGCCGCCGGUGGUAAAAAAGAUCGGAAGAGCACACGUCU [U7C G9A U11G C12U]	1.27
GGGUCGCUAUGGCAUAAUCGCGUGGAUAUGGCACGCAAGUUUCUACCGGGCACCGUAAAUGUCCGACUGGAGCCGUUCGGGCGGCUAUAAACAGACCUCAGGCCCGAAGCGUGGCGGCACCUGCCGCCGGUGGUAAAAAAGAUCGGAAGAGCACACGUCU [U7C G9A U11G C12G]	1.37
GGGUCGCUAUCCCAUAAUCGCGUGGAUAUGGCACGCAAGUUUCUACCGGGCACCGUAAAUGUCCGACUGGAGCCGUUCGGGCGGCUAUAAACAGACCUCAGGCCCGAAGCGUGGCGGCACCUGCCGCCGGUGGUAAAAAAGAUCGGAAGAGCACACGUCU [U7C G9A U11C]	1.05
GGGUCGCUAUGCCAUAAUCGCGUGGAUAUGGCACGCAAGUUUCUACCGGGCACCGUAAAUGUCCGACUGGAGCCGUUCGGGCGGCUAUAAACAGACCUCAGGCCCGAAGCGUGGCGGCACCUGCCGCCGGUGGUAAAAAAGAUCGGAAGAGCACACGUCU [U7C G9A U11G]	1.37
GGGUCGCUAUCAAAUAAUCGCGUGGAUAUGGCACGCAAGUUUCUACCGGGCACCGUAAAUGUCCGACUGGAGCCGUUCGGGCGGCUAUAAACAGACCUCAGGCCCGAAGCGUGGCGGCACCUGCCGCCGGUGGUAAAAAAGAUCGGAAGAGCACACGUCU [U7C G9A U11C C12A C13A]	1.16
GGGUCGCUAUCAUAUAAUCGCGUGGAUAUGGCACGCAAGUUUCUACCGGGCACCGUAAAUGUCCGACUGGAGCCGUUCGGGCGGCUAUAAACAGACCUCAGGCCCGAAGCGUGGCGGCACCUGCCGCCGGUGGUAAAAAAGAUCGGAAGAGCACACGUCU [U7C G9A U11C C12A C13U]	1.15
GGGUCGCUAUCAGAUAAUCGCGUGGAUAUGGCACGCAAGUUUCUACCGGGCACCGUAAAUGUCCGACUGGAGCCGUUCGGGCGGCUAUAAACAGACCUCAGGCCCGAAGCGUGGCGGCACCUGCCGCCGGUGGUAAAAAAGAUCGGAAGAGCACACGUCU [U7C G9A U11C C12A C13G]	1.12

Variant	aptazyme ON/OFF ratio
GGGUCGCUAUCGCAUAAUCGCGUGGAUAUGGCACGCAAGUUUCUACCGGGCACCGUAAAUGUCCGACUGGAGCCGUUCGGGCGGCUAUAAACAGACCUCAGGCCCGAAGCGUGGCGGCACCUGCCGCCGGUGGUAAAAAAGAUCGGAAGAGCACACGUCU [U7C G9A U11C C12G]	1.22
GGGUCGCUAUCACAUAAUCGCGUGGAUAUGGCACGCAAGUUUCUACCGGGCACCGUAAAUGUCCGACUGGAGCCGUUCGGGCGGCUAUAAACAGACCUCAGGCCCGAAGCGUGGCGGCACCUGCCGCCGGUGGUAAAAAAGAUCGGAAGAGCACACGUCU [U7C G9A U11C C12A]	1.2
GGGUCGCUAUCUCAUAAUCGCGUGGAUAUGGCACGCAAGUUUCUACCGGGCACCGUAAAUGUCCGACUGGAGCCGUUCGGGCGGCUAUAAACAGACCUCAGGCCCGAAGCGUGGCGGCACCUGCCGCCGGUGGUAAAAAAGAUCGGAAGAGCACACGUCU [U7C G9A U11C C12U]	1.17
GGGUCGCUAUGUUAUAAUCGCGUGGAUAUGGCACGCAAGUUUCUACCGGGCACCGUAAAUGUCCGACUGGAGCCGUUCGGGCGGCUAUAAACAGACCUCAGGCCCGAAGCGUGGCGGCACCUGCCGCCGGUGGUAAAAAAGAUCGGAAGAGCACACGUCU [U7C G9A U11G C12U C13U]	1.45
GGGUCGCUAUGUAAUAAUCGCGUGGAUAUGGCACGCAAGUUUCUACCGGGCACCGUAAAUGUCCGACUGGAGCCGUUCGGGCGGCUAUAAACAGACCUCAGGCCCGAAGCGUGGCGGCACCUGCCGCCGGUGGUAAAAAAGAUCGGAAGAGCACACGUCU [U7C G9A U11G C12U C13A]	1.35
GGGUCGCUAUGUGAUAAUCGCGUGGAUAUGGCACGCAAGUUUCUACCGGGCACCGUAAAUGUCCGACUGGAGCCGUUCGGGCGGCUAUAAACAGACCUCAGGCCCGAAGCGUGGCGGCACCUGCCGCCGGUGGUAAAAAAGAUCGGAAGAGCACACGUCU [U7C G9A U11G C12U C13G]	1.23
GGGUCGCUAUCUGAUAAUCGCGUGGAUAUGGCACGCAAGUUUCUACCGGGCACCGUAAAUGUCCGACUGGAGCCGUUCGGGCGGCUAUAAACAGACCUCAGGCCCGAAGCGUGGCGGCACCUGCCGCCGGUGGUAAAAAAGAUCGGAAGAGCACACGUCU [U7C G9A U11C C12U C13G]	1.02
GGGUCGCUAUCUUAUAAUCGCGUGGAUAUGGCACGCAAGUUUCUACCGGGCACCGUAAAUGUCCGACUGGAGCCGUUCGGGCGGCUAUAAACAGACCUCAGGCCCGAAGCGUGGCGGCACCUGCCGCCGGUGGUAAAAAAGAUCGGAAGAGCACACGUCU [U7C G9A U11C C12U C13U]	1.11
GGGUCGCUAUCUAAUAAUCGCGUGGAUAUGGCACGCAAGUUUCUACCGGGCACCGUAAAUGUCCGACUGGAGCCGUUCGGGCGGCUAUAAACAGACCUCAGGCCCGAAGCGUGGCGGCACCUGCCGCCGGUGGUAAAAAAGAUCGGAAGAGCACACGUCU [U7C G9A U11C C12U C13A]	1.17
GGGUCGCUAUGGGAUAAUCGCGUGGAUAUGGCACGCAAGUUUCUACCGGGCACCGUAAAUGUCCGACUGGAGCCGUUCGGGCGGCUAUAAACAGACCUCAGGCCCGAAGCGUGGCGGCACCUGCCGCCGGUGGUAAAAAAGAUCGGAAGAGCACACGUCU [U7C G9A U11G C12G C13G]	1.21
GGGUCGCUAUGGUAUAAUCGCGUGGAUAUGGCACGCAAGUUUCUACCGGGCACCGUAAAUGUCCGACUGGAGCCGUUCGGGCGGCUAUAAACAGACCUCAGGCCCGAAGCGUGGCGGCACCUGCCGCCGGUGGUAAAAAAGAUCGGAAGAGCACACGUCU [U7C G9A U11G C12G C13U]	1.09
GGGUCGCUAUGGAAUAAUCGCGUGGAUAUGGCACGCAAGUUUCUACCGGGCACCGUAAAUGUCCGACUGGAGCCGUUCGGGCGGCUAUAAACAGACCUCAGGCCCGAAGCGUGGCGGCACCUGCCGCCGGUGGUAAAAAAGAUCGGAAGAGCACACGUCU [U7C G9A U11G C12G C13A]	1.19
GGGUCGCUAUCCAAUAAUCGCGUGGAUAUGGCACGCAAGUUUCUACCGGGCACCGUAAAUGUCCGACUGGAGCCGUUCGGGCGGCUAUAAACAGACCUCAGGCCCGAAGCGUGGCGGCACCUGCCGCCGGUGGUAAAAAAGAUCGGAAGAGCACACGUCU [U7C G9A U11C C13A]	1.07
GGGUCGCUAUCCUAUAAUCGCGUGGAUAUGGCACGCAAGUUUCUACCGGGCACCGUAAAUGUCCGACUGGAGCCGUUCGGGCGGCUAUAAACAGACCUCAGGCCCGAAGCGUGGCGGCACCUGCCGCCGGUGGUAAAAAAGAUCGGAAGAGCACACGUCU [U7C G9A U11C C13U]	1.06
GGGUCGCUAUCCGAUAAUCGCGUGGAUAUGGCACGCAAGUUUCUACCGGGCACCGUAAAUGUCCGACUGGAGCCGUUCGGGCGGCUAUAAACAGACCUCAGGCCCGAAGCGUGGCGGCACCUGCCGCCGGUGGUAAAAAAGAUCGGAAGAGCACACGUCU [U7C G9A U11C C13G]	1.04
GGGUCGCUAUGCUAUAAUCGCGUGGAUAUGGCACGCAAGUUUCUACCGGGCACCGUAAAUGUCCGACUGGAGCCGUUCGGGCGGCUAUAAACAGACCUCAGGCCCGAAGCGUGGCGGCACCUGCCGCCGGUGGUAAAAAAGAUCGGAAGAGCACACGUCU [U7C G9A U11G C13U]	1.11
GGGUCGCUAUGCAAUAAUCGCGUGGAUAUGGCACGCAAGUUUCUACCGGGCACCGUAAAUGUCCGACUGGAGCCGUUCGGGCGGCUAUAAACAGACCUCAGGCCCGAAGCGUGGCGGCACCUGCCGCCGGUGGUAAAAAAGAUCGGAAGAGCACACGUCU [U7C G9A U11G C13A]	1.46
GGGUCGCUAUGCGAUAAUCGCGUGGAUAUGGCACGCAAGUUUCUACCGGGCACCGUAAAUGUCCGACUGGAGCCGUUCGGGCGGCUAUAAACAGACCUCAGGCCCGAAGCGUGGCGGCACCUGCCGCCGGUGGUAAAAAAGAUCGGAAGAGCACACGUCU [U7C G9A U11G C13G]	1.07
